Among the data in PMC2670979 are percent of the level in 0 [Ca2+], values, retold here.

One test deals with GST-Miro1 ΔEF (UniProt Q8IXI2). The experiment in a line: pull-down; as a5 but at 5 uM [Ca2+]free; band normalised to the level in 0 Ca2+.
The target of the next test is GST-Miro1 WT (UniProt Q8IXI2). The test is described as above.
GST-Miro1 WT, sequence (Q8IXI2 whole entry): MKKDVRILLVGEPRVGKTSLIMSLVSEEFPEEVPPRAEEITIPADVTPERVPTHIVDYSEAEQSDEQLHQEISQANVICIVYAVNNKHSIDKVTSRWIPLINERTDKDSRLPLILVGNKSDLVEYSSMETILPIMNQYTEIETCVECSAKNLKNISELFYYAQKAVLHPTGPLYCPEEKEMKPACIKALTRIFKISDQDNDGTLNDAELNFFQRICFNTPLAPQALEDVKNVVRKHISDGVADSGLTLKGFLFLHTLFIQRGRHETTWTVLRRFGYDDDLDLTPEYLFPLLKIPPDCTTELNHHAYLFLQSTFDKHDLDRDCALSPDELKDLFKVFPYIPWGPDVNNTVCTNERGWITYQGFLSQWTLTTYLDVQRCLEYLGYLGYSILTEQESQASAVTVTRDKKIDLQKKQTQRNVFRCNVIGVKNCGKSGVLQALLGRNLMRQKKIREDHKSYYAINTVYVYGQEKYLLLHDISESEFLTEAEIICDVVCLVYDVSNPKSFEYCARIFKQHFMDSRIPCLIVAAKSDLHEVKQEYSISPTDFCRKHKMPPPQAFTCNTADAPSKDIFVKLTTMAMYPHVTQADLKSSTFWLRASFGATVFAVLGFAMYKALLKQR

KIF5 motors (endogenous, detected using a pan-KIF5 antibody), sequence (Q2PQA9 whole entry): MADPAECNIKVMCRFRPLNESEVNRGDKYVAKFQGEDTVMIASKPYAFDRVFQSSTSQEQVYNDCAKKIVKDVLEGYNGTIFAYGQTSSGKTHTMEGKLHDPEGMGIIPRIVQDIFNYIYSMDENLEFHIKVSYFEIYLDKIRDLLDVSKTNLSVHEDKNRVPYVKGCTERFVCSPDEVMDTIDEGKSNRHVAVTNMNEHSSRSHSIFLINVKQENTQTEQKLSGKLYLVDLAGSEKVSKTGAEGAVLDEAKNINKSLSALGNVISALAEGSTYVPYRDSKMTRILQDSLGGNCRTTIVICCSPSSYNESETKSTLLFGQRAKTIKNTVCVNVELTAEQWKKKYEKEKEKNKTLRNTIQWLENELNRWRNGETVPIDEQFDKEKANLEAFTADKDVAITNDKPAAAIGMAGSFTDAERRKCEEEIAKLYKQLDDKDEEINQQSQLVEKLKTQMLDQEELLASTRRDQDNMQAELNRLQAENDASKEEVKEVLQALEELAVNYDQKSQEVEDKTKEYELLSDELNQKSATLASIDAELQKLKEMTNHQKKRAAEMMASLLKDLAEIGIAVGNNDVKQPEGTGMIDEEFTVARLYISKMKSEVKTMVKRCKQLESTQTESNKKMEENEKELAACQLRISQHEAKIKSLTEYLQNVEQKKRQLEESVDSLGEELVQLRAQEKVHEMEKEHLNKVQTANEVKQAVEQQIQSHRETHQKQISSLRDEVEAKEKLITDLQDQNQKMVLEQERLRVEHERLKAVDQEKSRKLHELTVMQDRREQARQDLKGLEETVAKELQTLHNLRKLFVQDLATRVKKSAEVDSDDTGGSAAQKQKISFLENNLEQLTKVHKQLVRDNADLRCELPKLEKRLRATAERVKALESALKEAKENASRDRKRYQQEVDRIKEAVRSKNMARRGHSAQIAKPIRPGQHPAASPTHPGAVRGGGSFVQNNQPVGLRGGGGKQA
GST-Miro1 ΔEF, sequence (Q8IXI2 whole entry E208K/E328K): as the sequence (Q8IXI2 whole entry) above, with E208K, E328K counted along it

In the test with GST-Miro1 ΔEF, “KIF5 motors (endogenous, detected using a pan-KIF5 antibody) (from UniProt Q2PQA9 1-963) (natural protein)” showed a percent of the level in 0 [Ca2+], at 5 uM [Ca2+] of 87%. The percent of the level in 0 [Ca2+], at 5 uM [Ca2+]free with GST-Miro1 WT was found to be 15%.
